Read-outs that look alike come from different tables or passages of the source.

One may read the EC50 as the concentration at which the effect is half-maximal.

The target of assay [1] is T1, recombinant soluble human IL-6R (human, UniProt P08887 20-365).
T1 construct: extracellular domain; Printed only as 'soluble'; read as the extracellular domain; also called hIL-6R; sIL-6R
T1 sequence (looked up): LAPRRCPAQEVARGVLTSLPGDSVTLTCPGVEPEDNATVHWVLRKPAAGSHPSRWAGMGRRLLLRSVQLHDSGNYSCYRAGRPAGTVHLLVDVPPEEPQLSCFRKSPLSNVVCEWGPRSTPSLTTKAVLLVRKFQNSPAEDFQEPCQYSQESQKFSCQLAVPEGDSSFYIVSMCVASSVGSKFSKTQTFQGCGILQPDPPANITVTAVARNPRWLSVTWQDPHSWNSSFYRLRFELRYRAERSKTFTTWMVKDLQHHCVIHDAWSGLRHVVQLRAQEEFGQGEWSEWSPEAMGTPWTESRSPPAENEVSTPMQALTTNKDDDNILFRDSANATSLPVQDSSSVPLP
Briefly: Standard gp130 ELISA: ICVD mixed with soluble human IL-6R, then IL-6; complex captured on coated gp130 (competition). (In general: An ELISA detects its analyte on a solid surface through an enzyme-linked reagent.)

Assay [2] addresses T2, recombinant human TNF (human, UniProt P01375 77-233).
T2 construct: also called TNF-alpha; TNFα
Kind of assay: Standard TNFR2/TNF interference ELISA: ICVD mixed with human TNF, TNF captured on coated Enbrel (competition).

In assay [3] the target is T2, recombinant human TNF. Briefly: Standard TNFR2/TNF interference ELISA (competition), against ID32F.
Assay [4] deals with T1, recombinant soluble human IL-6R. Briefly: Standard gp130 ELISA: ICVD mixed with soluble human IL-6R, then IL-6; complex captured on coated gp130 (competition). This is another data set of the same source.

T2 sequence (P01375 77-233 limits assumed): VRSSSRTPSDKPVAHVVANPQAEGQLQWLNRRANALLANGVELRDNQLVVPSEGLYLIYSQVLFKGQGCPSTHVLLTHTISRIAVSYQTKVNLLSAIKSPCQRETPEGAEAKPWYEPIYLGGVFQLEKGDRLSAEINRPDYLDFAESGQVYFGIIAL

B1: anti-IL-6R ICVD 7F6 (VHH)
VHH: EVQLVESGGGLVQAGGSTRLTCLASGSISSINVIGWYRQAPGKQRELVAMIGRGEGANYGDFAKGRFTISRDNSKNTVYLQMNSLKPEDTAVYYCYADYEDRDSPFNGSWGQGTQVTVSS
Turning to B1, the EC50 in assay [1] amounted to 0.15 nM.

B2: anti-IL-6R ICVD ID-3V (VHH)
VHH: EVQLVESGGGLVQAGGSTRLTCLASGSISSINVIGWYRQAPGKQRELVAMIGRGEGANYGDFAKGRFTISRDNSKNTVYLQMNSLKPEDTAVYYCYADYEDHDSPFNGSWGQGTQVTVSS
notes: also called 7F6 with R102H
In the case of B2, the concentration for a half-maximal effect (EC50) in assay [1] worked out at 0.16 nM.

B3: anti-TNF-alpha ICVD ID8F-EV (VHH)
VHH: EVQLVESGGGLVQPGGSLKLSCAASGFDFSSHWMYWVRQAPGKELEWLSEINTNGLITHYGDSVKGRFTVSRNNAANKMYLELTRLEPEDTALYYCARNQKGLNKGQGTQVTVSS
notes: also called Q65B1 with a K59H substitution; K59H; not shown: C-terminal Flag-His6 tag
Take B3: the EC50 in assay [2] is 0.139 nM.

B4: anti-TNF-alpha ICVD ID43F (VHH)
VHH: EVQLVESGGGLVQPGGSLKLSCAASGFDFSSHWMYWVRQAPGKELEWLSEINTNGLITAYGDSVKGRFTVSRNNAANKMYLELTRLEPEDTALYYCARNQKGLNKGQGTQVTVSS
notes: also called Q65B1 with a K59A substitution; K59A; not shown: C-terminal Flag-His6 tag
In the case of B4, in assay [2], the EC50 is 0.603 nM.

B5: anti-TNF-alpha ICVD ID44F (VHH)
VHH: EVQLVESGGGLVQPGGSLKLSCAASGFDFSSHWMYWVRQAPGKELEWLSEINTNGLITQYGDSVKGRFTVSRNNAANKMYLELTRLEPEDTALYYCARNQKGLNKGQGTQVTVSS
notes: also called Q65B1 with a K59Q substitution; K59Q; not shown: C-terminal Flag-His6 tag
As for B5, the concentration for a half-maximal effect (EC50) in assay [2] is 0.245 nM.

B6: anti-TNF-alpha ICVD ID34F (VHH)
VHH: EVQLVESGGGLVQPGGSLKLSCAASGFDFSSHWMYWVRQAPGKELEWLSEINTNGLITHYGDSVKGRFTVSRNNAANKMYLELTRLEPEDTALYYCARNQHGLNKGQGTQVTVSS
notes: also called Q65B1 with K59H and K101H
For B6, the binding result in assay [3] was “binds”.

B7: anti-TNF-alpha ICVD Q65B1 (VHH)
VHH: EVQLVESGGGLVQPGGSLKLSCAASGFDFSSHWMYWVRQAPGKELEWLSEINTNGLITKYGDSVKGRFTVSRNNAANKMYLELTRLEPEDTALYYCARNQKGLNKGQGTQVTVSS
notes: also called K59; not shown: C-terminal Flag-His6 tag
On to B7, for which, in assay [2], the concentration giving a half-maximal response (EC50) came out at 0.0984 nM.

B8: anti-IL-6R ICVD 5G9 (VHH)
VHH: EVQLVESGGGLVQAGGSTRLTCKASGSIFNINSINVMAWYRQAPGKQRELVAIIGKGGGTNYADFVKGRFTISRDAAKNTVNLQMNSLKPEDTAVYYCYADYEDRDSPFNASWGQGTQVTVSS
On to B8, for which the concentration for a half-maximal effect (EC50) in assay [4] was found to be 0.09 nM.

B9: anti-IL-6R ICVD ID-54V (VHH)
VHH: EVQLVESGGGLVQAGGSTRLTCKASGSIFNINSINVMAWYRQAPGKQRELVAIIGKGGGTNYADFVKGRFTISRDAAKNTVNLQMNSLKPEDTAVYYCYADYEDHDSPFNASWGQGTQVTVSS
notes: also called 5G9 with R105H
Regarding B9, the EC50 in assay [4] was determined as 0.15 nM.

The values above are taken from patent US20180009881A1 (VHSQUARED, published 2018).
